The text below walks through data of patent publication US8679540B2, “Pharmaceutical formulations for the prolonged release of active principle(s), and their applications, especially therapeutic applications” (Flamel Technologies, priority 2006, dated 2014).

The nature of data set [1]: Pharmacokinetics of hGH in the dog after subcutaneous injection of a microparticle formulation (Example 13). The data set is classed as in vivo, beagle dogs. The settings on record: hGH IR 5 × 0.1 mg/kg per day, Formulation 3 0.5 mg/kg. The procedure:
(§1) Twelve naïve beagle dogs (weighing 7 to 10 kg) were treated with the following formulations:
The hGH IR corresponds to a solution of recombinant human growth hormone ([hGH]=4.1 mg/ml, pH=7.2, 330 mOsm). Formulation 3 is prepared according to Example 9.

Data set [2] can be described thus: Pharmacokinetics of hGH in the dog after subcutaneous injection of nanoparticle and microparticle formulations (Example 12). The data set is classed as in vivo, beagle dogs. The settings on record: 1 mg/kg hGH. The procedure: as §1
The hGH IR corresponds to a solution of recombinant human growth hormone ([hGH]=4 mg/ml, pH=7.2, 330 mOsm).
Formulation 1 is prepared according to Example 2 and formulation 2 according to Example 7. The hGH is assayed by ELISA (DSL 10-1900 kit).
where: • Cmax is the maximum serum hGH concentration, • T>5 ng/ml is the time when the serum hGH concentration is greater than 5 ng/ml, • AUC represents the area under the curve of serum hGH concentration as a function of time, • RBA represents the bioavailability relative to an Immediate-Release formulation, • T50% auc represents the time required to release 50% of the total hGH released.

“hGH IR: solution of recombinant human growth hormone, immediate-release reference”: in data set [1], the “AUC0-last ± SD” value was determined as 258 ± 26 ng·h/mL, the “Cmax ± SD (maximum serum hGH concentration)” value amounted to 90 ± 24 ng/mL, the “RBA (bioavailability relative to an Immediate-Release formulation)” value was 100% and the “T50% auc ± SD” value worked out at 2 ± 0.3 h. In data set [1], the “T > 1 ng/ml ± SD” value is on record as 39 h. For the same substance, in data set [2], the “RBA (bioavailability relative to an Immediate-Release formulation)” value worked out at 100%, the “T50% auc ± SD (time required to release 50% of the total hGH released)” value stood at 4 ± 1 h, the “T > 5 ng/ml ± SD (time when serum hGH concentration is greater than 5 ng/ml)” value is 18 ± 3 h and the “apparent T½ (elimination)” value is given as “about 2 hours”. Moreover, in data set [2], the “median time to reach maximum serum concentration” value came to 2 h and the “time beyond which circulating hGH is no longer quantifiable” value was determined as 24 h. Moreover, the “AUC0-last ± SD” value in data set [2] (serum hGH) worked out at 3209 ± 276 ng·h/mL. Moreover, the “Cmax ± SD (maximum serum hGH concentration)” value in data set [2] (serum, ELISA, 1 mg/kg) was determined as 582 ± 155 ng/mL.
